# Paper doi:10.1101/869214
# Molecular target: calf collagen type I (calf) (UniProt P02453)
# Assay: ELISA
# Chain of UniProt P02453 (P02453 162-1217, chain 1 of 2): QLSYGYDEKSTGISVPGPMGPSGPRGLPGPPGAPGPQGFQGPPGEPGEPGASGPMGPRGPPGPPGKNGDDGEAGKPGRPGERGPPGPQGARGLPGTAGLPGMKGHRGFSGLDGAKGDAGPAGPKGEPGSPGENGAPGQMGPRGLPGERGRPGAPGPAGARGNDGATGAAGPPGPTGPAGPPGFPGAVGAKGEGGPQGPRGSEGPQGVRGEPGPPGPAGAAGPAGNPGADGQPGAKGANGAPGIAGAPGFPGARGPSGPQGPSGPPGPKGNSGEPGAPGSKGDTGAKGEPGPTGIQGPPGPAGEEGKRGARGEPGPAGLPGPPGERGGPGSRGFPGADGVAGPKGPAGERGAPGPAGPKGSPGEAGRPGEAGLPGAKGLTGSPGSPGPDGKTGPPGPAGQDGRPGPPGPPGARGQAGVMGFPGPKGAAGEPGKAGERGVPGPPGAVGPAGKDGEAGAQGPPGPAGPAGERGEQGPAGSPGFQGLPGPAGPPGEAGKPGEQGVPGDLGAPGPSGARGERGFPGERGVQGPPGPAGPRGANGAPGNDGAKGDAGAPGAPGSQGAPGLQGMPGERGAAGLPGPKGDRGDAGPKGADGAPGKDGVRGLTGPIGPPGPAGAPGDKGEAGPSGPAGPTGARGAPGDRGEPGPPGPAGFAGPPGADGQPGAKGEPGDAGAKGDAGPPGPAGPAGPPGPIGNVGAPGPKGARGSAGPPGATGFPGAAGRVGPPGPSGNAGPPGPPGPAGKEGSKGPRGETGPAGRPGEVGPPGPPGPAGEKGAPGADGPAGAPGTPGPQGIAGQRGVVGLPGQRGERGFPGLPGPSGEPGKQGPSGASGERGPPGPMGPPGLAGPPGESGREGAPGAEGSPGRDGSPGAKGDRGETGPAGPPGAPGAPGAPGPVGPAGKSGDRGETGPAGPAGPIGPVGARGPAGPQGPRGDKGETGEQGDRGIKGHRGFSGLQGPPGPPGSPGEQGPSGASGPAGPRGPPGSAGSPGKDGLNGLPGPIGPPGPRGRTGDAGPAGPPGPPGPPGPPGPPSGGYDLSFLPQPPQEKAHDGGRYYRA
# Chain of UniProt P02453 (P02465 80-1117, chain 2 of 2, further chain): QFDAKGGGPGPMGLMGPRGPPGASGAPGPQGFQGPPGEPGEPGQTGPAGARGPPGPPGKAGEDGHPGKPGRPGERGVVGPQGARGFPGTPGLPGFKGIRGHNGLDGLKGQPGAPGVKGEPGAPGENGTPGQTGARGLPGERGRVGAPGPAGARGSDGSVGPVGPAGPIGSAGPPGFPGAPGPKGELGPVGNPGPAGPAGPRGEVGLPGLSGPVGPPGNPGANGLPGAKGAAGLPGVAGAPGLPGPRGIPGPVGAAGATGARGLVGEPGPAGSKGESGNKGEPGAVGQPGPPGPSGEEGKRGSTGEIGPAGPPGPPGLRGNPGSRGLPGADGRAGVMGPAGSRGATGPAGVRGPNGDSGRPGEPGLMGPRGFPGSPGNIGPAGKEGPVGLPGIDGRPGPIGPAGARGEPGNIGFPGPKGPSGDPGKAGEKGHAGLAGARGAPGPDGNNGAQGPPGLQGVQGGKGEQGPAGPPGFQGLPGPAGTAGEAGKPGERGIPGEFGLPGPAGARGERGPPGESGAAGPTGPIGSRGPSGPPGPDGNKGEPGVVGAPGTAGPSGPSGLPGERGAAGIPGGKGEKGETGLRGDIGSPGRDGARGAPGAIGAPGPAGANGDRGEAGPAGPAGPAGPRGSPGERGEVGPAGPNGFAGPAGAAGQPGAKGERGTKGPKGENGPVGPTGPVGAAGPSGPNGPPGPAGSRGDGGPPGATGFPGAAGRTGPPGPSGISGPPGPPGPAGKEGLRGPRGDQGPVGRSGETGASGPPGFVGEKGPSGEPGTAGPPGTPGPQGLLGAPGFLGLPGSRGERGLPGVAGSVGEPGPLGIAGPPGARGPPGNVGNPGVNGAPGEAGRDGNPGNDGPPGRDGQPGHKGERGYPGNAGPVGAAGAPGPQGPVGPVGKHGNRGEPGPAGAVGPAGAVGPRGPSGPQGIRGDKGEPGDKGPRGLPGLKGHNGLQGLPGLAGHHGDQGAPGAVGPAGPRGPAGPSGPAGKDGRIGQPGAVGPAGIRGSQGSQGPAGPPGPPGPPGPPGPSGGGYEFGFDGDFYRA
substance,measurement,value
Yersinia enterocolitica adhesin YadA head domains with a C-terminal His6-tag (domain or fragment),percent binding at pH 4,50%
